Target: T1, cyclophilin A (CypA), human (human, UniProt P62937 1-165)
T1 construct: human cyclophilin A (peptidyl-prolyl cis-trans isomerase A)
Assay: ITC; recombinant CypA or Nup358Cyp against recombinant CA^NTD, without cyclosporine; done as described in ref. 25
Conditions: both partners purified

B1: SIVmac capsid N-terminal domain (CA^NTD) (domain or fragment)
chain: not shown
modifications: No candidate fits. The accession (SIVmac Gag, isolate Mm142-83) is from memory because the isolate is not printed. Limits are CA residues 1-144, matching HIV-1 CA 1-146 (pdb 1M9D entity 2). Check …
**Q.** B1 was tested. Which Kd did it give?
**A.** The Kd was ~800 µM.

Reference: publication PMC3234246, “HIV-1 Capsid-Cyclophilin Interactions Determine Nuclear Import Pathway, Integration Targeting and Replication Efficiency” (PLoS Pathogens, 2011)
